This note sets out measurements from the supplement of paper PMC9170038.

The subject of the data set is K4 kissing-loop RNA reporter. The experiment in a line: apparent KD of K4 kissing-loop reporter; higher = weaker reporter binding. Particulars: Eterna round: R107. The protocol:
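RNA-MaP round R107: designed RNA switches with theophylline, tryptophan, arginine or FMN aptamers are transcribed on-chip within common flanks. They are titrated with a labelled K4 kissing-loop RNA reporter in RNA-MaP buffer (100 mM Tris pH 7.5, 80 mM KCl, 4 mM MgCl2), without ligand or with the indicated ligand. Median apparent KD per design.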

Setting [1] is: input ligand: theophylline 20 uM.
Where [2] appears, read: input ligand: tryptophan 2.4 mM.
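Note: bound reporter read as fluorescence of individual clusters on recovered sequencing chips by microscopy, with normalized cluster intensities fitted with a binding model.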

Regarding “AAUAAAAUCACGGCCGCCACUGAUUUCCGUAUUAGGAGUGAUGUUCCUAUGACUAUAUAAUUUAACAGGACCGGGUGAAUAUUUA [#21 K4 Tryptophan B Exclusion]”, the “apparent KD of K4 kissing-loop reporter” value is 111 nM (input ligand: FMN 200 uM); 109 nM (input ligand: arginine 13.2 mM); 110 nM (input ligand: none); 107 nM under setting [1]; 97.8 nM under setting [2].

As for “AAUAAUAUACAAAGGCGAACGAAUAGGGAAGGAGCGCGAUAUAACGCAGGUAGGUCGCCCAUAUUUUUAGUGAUGUUAGAGAAUA [E. Arginine A Tesla 1]”, the “apparent KD of K4 kissing-loop reporter” value runs as follows: (input ligand: FMN 200 uM) 938 nM; (input ligand: arginine 13.2 mM) 762 nM; (input ligand: none) 766 nM; under setting [1], 920 nM; under setting [2], 757 nM.

As to “AAUGUACAAGUGAUGUUUGUACUUUCCGAAGGAGCGUCAAAUAAGACAGGUAGGUCGCGGAUACUCUAAAUAAUCAGGUCAUUAA [JR_ExcArginiA_Sub019]”, the “apparent KD of K4 kissing-loop reporter” value by setting is: (input ligand: FMN 200 uM) 89.4 nM; (input ligand: arginine 13.2 mM) 88 nM; (input ligand: none) 88.9 nM; under setting [1], 87.2 nM; under setting [2], 85 nM.

On to “AAUGUACAGGGAAGGAGCGUAGUCCAGUGAUGUUGGAAUUAAAUACCAGUGAUGUUGGUUAUACAGGUAGGUCGCCCUAAAGUGC [KL-XARG-B20]”, for which the “apparent KD of K4 kissing-loop reporter” value came out at 86.3 nM (input ligand: FMN 200 uM); 72.3 nM (input ligand: arginine 13.2 mM); 81.9 nM (input ligand: none); 89.5 nM under setting [1]; 73.2 nM under setting [2].

Turning to “AAUUCAGUGAUGUUGGAAGGCAGGCGGGAUACCAGCGGAGAAUAACGCCCUUGGCAGCCCAAAUAUCCCAAAUAGAUAAUAGUUC [Same State - Theophylline A (Freestyle 2)]”, the “apparent KD of K4 kissing-loop reporter” value was 474 nM (input ligand: FMN 200 uM); 353 nM (input ligand: arginine 13.2 mM); 481 nM (input ligand: none); 475 nM under setting [1]; 450 nM under setting [2].

Consider “AAUUUAUUAACUGAUACCAGACUUUAUUAUUUGUAAAUUACUAGUGAUGUUAGUGUUUCUGUCCCUUGGCAGCAGUAUUUAUUAA [JR_SSTheophyB_Sub024]”, for which the “apparent KD of K4 kissing-loop reporter” value came out at 78.8 nM (input ligand: FMN 200 uM); 142 nM (input ligand: arginine 13.2 mM); 90.3 nM (input ligand: none); 134 nM under setting [1]; 70.5 nM under setting [2].

Consider “AAUUUUAAUAAUAAAUAAUAAAUAAAUGAUACCAGUAUUUUUUUUUACCCUUGGCAGCGUAUAUAAGGGCAGUGAUGUUGUCAAA [whbob_SS_Theo_A_w58]”, for which the “apparent KD of K4 kissing-loop reporter” value (input ligand: FMN 200 uM) amounted to 205 nM; the “apparent KD of K4 kissing-loop reporter” value (input ligand: arginine 13.2 mM) turned out to be 136 nM; the “apparent KD of K4 kissing-loop reporter” value (input ligand: none) is 153 nM; the “apparent KD of K4 kissing-loop reporter” value under setting [1] was 196 nM; the “apparent KD of K4 kissing-loop reporter” value under setting [2] was determined as 169 nM.

In the case of “AAUUUUAAUCAUAAAUAAUAAAUAAAUGAUACCAGUAUUUUUUUUUACCCUUGGCAGCGUAUAUAAGGGCAGUGAUGUUGUCAGA [whbob_SS_Theo_A_w60]”, the “apparent KD of K4 kissing-loop reporter” value is, setting by setting: (input ligand: FMN 200 uM) 236 nM; (input ligand: arginine 13.2 mM) 98.8 nM; (input ligand: none) 257 nM; under setting [1], 222 nM; under setting [2], 164 nM.

Regarding “ACACGUGUGGCAGGAUAUCGGGCUGUGGAUCGGCUGGUUGCUUAUUCUCGACCAGUGAUGUUGGUACGAGAAGGGCUACCCAGAA [Diorce]”, the “apparent KD of K4 kissing-loop reporter” value (input ligand: FMN 200 uM) stood at 149 nM; the “apparent KD of K4 kissing-loop reporter” value (input ligand: arginine 13.2 mM) was 113 nM; the “apparent KD of K4 kissing-loop reporter” value (input ligand: none) amounted to 114 nM; the “apparent KD of K4 kissing-loop reporter” value under setting [1] amounted to 102 nM; the “apparent KD of K4 kissing-loop reporter” value under setting [2] was 123 nM.

On to “ACACUAUCGUCAUAGACGGUAGUGAAAUGUGAGGAUAUGAGUGAUGUUAGAAGGCACAAAGACUGUAUCGAAUAGAUACAGUCAA [FmnA 6 #K4BetweenAptamer #OpenEnded]”, for which the “apparent KD of K4 kissing-loop reporter” value was found to be 558 nM (input ligand: FMN 200 uM); 96.5 nM (input ligand: arginine 13.2 mM); 139 nM (input ligand: none); 127 nM under setting [1]; 120 nM under setting [2].

Consider “ACACUUACACAUGAUACCAGAAUUCUACCGUAAAUAGUAAGUGAUGUUUGCUAACGGCUUUUCCCUUGGCAGCAUGAUCGGUAUU [theeternabot_sameState_KL_Theo_B_43]”, for which the “apparent KD of K4 kissing-loop reporter” value by setting is: (input ligand: FMN 200 uM) 201 nM; (input ligand: arginine 13.2 mM) 121 nM; (input ligand: none) 178 nM; under setting [1], 242 nM; under setting [2], 149 nM.

In the case of “ACACUUUACGUAGGAUAUGCGACGAGUGAUGUUCGUCAGGCGGCUUGAGCUUAAACAGGCCGUCUAGCAGAAGGACGGGCAGUGU [Diorsodi]”, the “apparent KD of K4 kissing-loop reporter” value reads like this: (input ligand: FMN 200 uM) 147 nM; (input ligand: arginine 13.2 mM) 143 nM; (input ligand: none) 192 nM; under setting [1], 194 nM; under setting [2], 168 nM.

Consider “ACAGUCGGCUGUGAUACCAGUCGUAUUACAACAUGUUGCAGUGAUGUUGCGAGAUAGGAUGACCCUUGGCAGCACUCAGUACGAU [Same State Theophylline B GF9]”, for which the “apparent KD of K4 kissing-loop reporter” value (input ligand: FMN 200 uM) turned out to be 310 nM; the “apparent KD of K4 kissing-loop reporter” value (input ligand: arginine 13.2 mM) was 99.7 nM; the “apparent KD of K4 kissing-loop reporter” value (input ligand: none) came to 173 nM; the “apparent KD of K4 kissing-loop reporter” value under setting [1] was found to be 179 nM; the “apparent KD of K4 kissing-loop reporter” value under setting [2] was 144 nM.

As to “ACCUAGUAGACAGGAUAUCACGAUGACAGUGAUGUUGUCAUCAUCGAUUUGAGGAAACUCAGAUCGUGAGAAGGGUCUAACGACU [FMN B SS t7a]”, the “apparent KD of K4 kissing-loop reporter” value (input ligand: FMN 200 uM) worked out at 147 nM; the “apparent KD of K4 kissing-loop reporter” value (input ligand: arginine 13.2 mM) came out at 173 nM; the “apparent KD of K4 kissing-loop reporter” value (input ligand: none) was found to be 204 nM; the “apparent KD of K4 kissing-loop reporter” value under setting [1] was 168 nM; the “apparent KD of K4 kissing-loop reporter” value under setting [2] amounted to 190 nM.

“ACGUCACGUAUACUGGUGGUUUCGAUCGAUACCAGUAGCGAGAGUUACCCUUGGCAGCGACAUGAGUGAUGUUUAUGUAUGAUGA [#13 K4 Theophylline A Exclusion]”: the “apparent KD of K4 kissing-loop reporter” value is 639 nM (input ligand: FMN 200 uM); 551 nM (input ligand: arginine 13.2 mM); 593 nM (input ligand: none); 560 nM under setting [1]; 492 nM under setting [2].

Turning to “ACGUCCGGAUUAAUCGUGGGCAUGGUCGAUACCAGAUCUUUAAUGAUCCCUUGGCAGCGACAUGAGUGAUGUUCAUGUGCGAUGA [KL-XTheo-A8 #analogue]”, the “apparent KD of K4 kissing-loop reporter” value by setting is: (input ligand: FMN 200 uM) 188 nM; (input ligand: arginine 13.2 mM) 152 nM; (input ligand: none) 186 nM; under setting [1], 244 nM; under setting [2], 179 nM.

Turning to “ACGUCCGGAUUGAUCGUGGGCAUGGUCGAUACCAGUAGUUUAAUCUACCCUUGGCAGCGACAUGAGUGAUGUUCAUGUGCGGUGA [#14 K4 Theophylline A Exclusion]”, the “apparent KD of K4 kissing-loop reporter” value (input ligand: FMN 200 uM) is 194 nM; the “apparent KD of K4 kissing-loop reporter” value (input ligand: arginine 13.2 mM) came to 191 nM; the “apparent KD of K4 kissing-loop reporter” value (input ligand: none) turned out to be 188 nM; the “apparent KD of K4 kissing-loop reporter” value under setting [1] was 402 nM; the “apparent KD of K4 kissing-loop reporter” value under setting [2] came out at 200 nM.

As for “ACGUGCACCAGUGAUGUUGGAAAAUAUGAAGGAGCGGGUGAAAGCCCAGGUAGGUCGCAUAAUAGCACGAGCCACGAAAGUGGCA”, the “apparent KD of K4 kissing-loop reporter” value reads like this: (input ligand: FMN 200 uM) 131 nM; (input ligand: arginine 13.2 mM) 175 nM; (input ligand: none) 184 nM; under setting [1], 154 nM; under setting [2], 117 nM.

As to “AGAACUGUCUGAGAUACCAGCCAGGAAGUGAUGUUUCCAGCUCCACGAAAGUGGAGCCAUGGCCCUUGGCAGCUCAGACAGUUCA [Omei KL Theo B SS A v5]”, the “apparent KD of K4 kissing-loop reporter” value reads like this: (input ligand: FMN 200 uM) 150 nM; (input ligand: arginine 13.2 mM) 141 nM; (input ligand: none) 147 nM; under setting [1], 105 nM; under setting [2], 154 nM.

As to “AGACUACCACACUGUCAAUAGACAGUGAGCUAGGAUAUGCUGAUAAGCAGAAGGAGUGAUGUUCCGAGGUAGUCAAUAAAAUAAU [FmnAX 13 G29+G66]”, the “apparent KD of K4 kissing-loop reporter” value worked out at 395 nM (input ligand: FMN 200 uM); 273 nM (input ligand: arginine 13.2 mM); 261 nM (input ligand: none); 357 nM under setting [1]; 257 nM under setting [2].

On to “AGACUACCACACUGUCAAUAGACAGUGGACUAGGAUAUGCUGAUAAGCAGAAGGAGUGAUGUUCCUCGGUAGUCAAUAAAAUAAU [FmnAX 13 G28+C67]”, for which the “apparent KD of K4 kissing-loop reporter” value is, setting by setting: (input ligand: FMN 200 uM) 323 nM; (input ligand: arginine 13.2 mM) 318 nM; (input ligand: none) 286 nM; under setting [1], 489 nM; under setting [2], 273 nM.
